# B1: RARg: Retinoic acid receptor γ (NR1B3), nuclear hormone receptor cDNA driver (protein, UniProt P13631 1-454, looked up)
# Retinoic acid receptor gamma: MATNKERLFAAGALGPGSGYPGAGFPFAFPGALRGSPPFEMLSPSFRGLGQPDLPKEMASLSVETQSTSSEEMVPSSPSPPPPPRVYKPCFVCNDKSSGYHYGVSSCEGCKGFFRRSIQKNMVYTCHRDKNCIINKVTRNRCQYCRLQKCFEVGMSKEAVRNDRNKKKKEVKEEGSPDSYELSPQLEELITKVSKAHQETFPSLCQLGKYTTNSSADHRVQLDLGLWDKFSELATKCIIKIVEFAKRLPGFTGLSIADQITLLKAACLDILMLRICTRYTPEQDTMTFSDGLTLNRTQMHNAGFGPLTDLVFAFAGQLLPLEMDDTETGLLSAICLICGDRMDLEEPEKVDKLQEPLLEALRLYARRRRPSQPYMFPRMLMKITDLRGISTKGAERAITLKMEIPGPMPPLIREMLENPEMFEDDSSQPGPHPNASSEDEVPGGQGKGGLKSPA
# B2: PPARd: Peroxisome proliferator activated receptor δ (NR1C2), cDNA driver (protein, UniProt Q03181 1-441, looked up)
# Peroxisome …: MEQPQEEAPEVREEEEKEEVAEAEGAPELNGGPQHALPSSSYTDLSRSSSPPSLLDQLQMGCDGASCGSLNMECRVCGDKASGFHYGVHACEGCKGFFRRTIRMKLEYEKCERSCKIQKKNRNKCQYCRFQKCLALGMSHNAIRFGRMPEAEKRKLVAGLTANEGSQYNPQVADLKAFSKHIYNAYLKNFNMTKKKARSILTGKASHTAPFVIHDIETLWQAEKGLVWKQLVNGLPPYKEISVHVFYRCQCTTVETVRELTEFAKSIPSFSSLFLNDQVTLLKYGVHEAIFAMLASIVNKDGLLVANGSGFVTREFLRSLRKPFSDIIEPKFEFAVKFNALELDDSDLALFIAAIILCGDRPGLMNVPRVEAIQDTILRALEFHLQANHPDAQYLFPKLLQKMADLRQLVTEHAQMMQRIKKTETETSLHPLLQEIYKDMY
# B3: RARb: Retinoic acid receptor β (NR1B2), nuclear hormone receptor cDNA driver (protein, UniProt P10826 1-455, looked up)
# Retinoic acid receptor beta: MTTSGHACPVPAVNGHMTHYPATPYPLLFPPVIGGLSLPPLHGLHGHPPPSGCSTPSPATIETQSTSSEELVPSPPSPLPPPRVYKPCFVCQDKSSGYHYGVSACEGCKGFFRRSIQKNMIYTCHRDKNCVINKVTRNRCQYCRLQKCFEVGMSKESVRNDRNKKKKETSKQECTESYEMTAELDDLTEKIRKAHQETFPSLCQLGKYTTNSSADHRVRLDLGLWDKFSELATKCIIKIVEFAKRLPGFTGLTIADQITLLKAACLDILILRICTRYTPEQDTMTFSDGLTLNRTQMHNAGFGPLTDLVFTFANQLLPLEMDDTETGLLSAICLICGDRQDLEEPTKVDKLQEPLLEALKIYIRKRRPSKPHMFPKILMKITDLRSISAKGAERVITLKMEIPGSMPPLIQEMLENSEGHEPLTPSSSGNTAEHSPSISPSSVENSGVSQSPLVQ
# B4: RARa: Retinoic acid receptor α (NR1B1), nuclear hormone receptor cDNA driver (protein, UniProt P10276 1-462, looked up)
# Retinoic acid receptor alpha: MASNSSSCPTPGGGHLNGYPVPPYAFFFPPMLGGLSPPGALTTLQHQLPVSGYSTPSPATIETQSSSSEEIVPSPPSPPPLPRIYKPCFVCQDKSSGYHYGVSACEGCKGFFRRSIQKNMVYTCHRDKNCIINKVTRNRCQYCRLQKCFEVGMSKESVRNDRNKKKKEVPKPECSESYTLTPEVGELIEKVRKAHQETFPALCQLGKYTTNNSSEQRVSLDIDLWDKFSELSTKCIIKTVEFAKQLPGFTTLTIADQITLLKAACLDILILRICTRYTPEQDTMTFSDGLTLNRTQMHNAGFGPLTDLVFAFANQLLPLEMDDAETGLLSAICLICGDRQDLEQPDRVDMLQEPLLEALKVYVRKRRPSRPHMFPKMLMKITDLRSISAKGAERVITLKMEIPGSMPPLIQEMLENSEGLDTLSGQPGGGGRDGGGLAPPPGSCSPSLSPSSNRSSPATHSP
# B5: FXR: Farnesoid X Receptor (NR1H4), cDNA driver (protein, UniProt Q96RI1 1-486, looked up)
# Bile acid receptor: MVMQFQGLENPIQISPHCSCTPSGFFMEMMSMKPAKGVLTEQVAGPLGQNLEVEPYSQYSNVQFPQVQPQISSSSYYSNLGFYPQQPEEWYSPGIYELRRMPAETLYQGETEVAEMPVTKKPRMGASAGRIKGDELCVVCGDRASGYHYNALTCEGCKGFFRRSITKNAVYKCKNGGNCVMDMYMRRKCQECRLRKCKEMGMLAECMYTGLLTEIQCKSKRLRKNVKQHADQTVNEDSEGRDLRQVTSTTKSCREKTELTPDQQTLLHFIMDSYNKQRMPQEITNKILKEEFSAEENFLILTEMATNHVQVLVEFTKKLPGFQTLDHEDQIALLKGSAVEAMFLRSAEIFNKKLPSGHSDLLEERIRNSGISDEYITPMFSFYKSIGELKMTQEEYALLTAIVILSPDRQYIKDREAVEKLQEPLLDVLQKLCKIHQPENPQHFACLLGRLTELRTFNHHHAEMLMSWRVNDHKFTPLLCEIWDVQ
# Key:
# RevErba promoter = experiment: NHR-promoter luciferase screen, RevErba (RVRa) promoter; assay type: cell-based; set-up: key to mRevErba promoter reporter activity / Normalized Luc. act., normalized to control: luciferase activity normalized to lacZ and to control (no NHR/ligand); details: for Luc. act., normalized to lacZ / Normalized Luc. act., normalized to control: HR component without or with ligand; for normalized Luc. act. on a logarithmic scale (column without head, Table 33): log10 of activity normalized to control; for mRevErba promoter reporter activity: transcription factor +/- ligand, control = 1.00
# Procedure, shortened: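 CV-1 cells co-transfected with NHR (pcDNA3.1, C-terminal V5H6 tag) as homodimer or RXR heterodimer, RevErbα promoter–luciferase reporter and LacZ transfection control; ligand added where applicable. Luciferase normalized to LacZ and to no-NHR/no-ligand control.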
# mAdiponectin promoter = experiment: NHR-promoter luciferase screen, mAdiponectin promoter; assay type: cell-based, mouse; details: for Luc. act., normalized to lacZ / Normalized Luc. act., normalized to control: Adiponectin, HR component without or with its ligand; for mAdiponectin promoter reporter activity: transcription factor +/- ligand, control = 1.00
# Procedure, shortened: (§1)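 CV-1 cells were co-transfected with 50 ng NHR (homodimer or NHR/RXR heterodimer), 100 ng promoter-luciferase construct and 50 ng LacZ. Luciferase was normalized to LacZ and to a no-NHR/no-ligand control.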
# mPgc1b promoter = experiment: NHR-promoter luciferase screen, mPgc1b promoter; assay type: cell-based, mouse; details: for Luc. act., normalized to lacZ / Normalized Luc. act., normalized to control: PGC1b promoter reporter, co-transfected HR, without or with its ligand; for Normalized Luc. act., normalized to control: relative to control; for luciferase activity normalized to lacZ activity and to a control, mPgc1b: mPgc1b promoter-luciferase, CV-1 cells, NHR +/- ligand, control = 1.00
# Procedure, shortened: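 CV-1 cells co-transfected with NHR homodimer or NHR/RXR heterodimer (pcDNA3.1, C-terminal V5H6 tag), promoter-luciferase construct and LacZ transfection control. Orphan receptors screened without ligand. Luciferase normalized to LacZ and to no-NHR/no-ligand control.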
# hPPARg1 promoter = experiment: NHR-promoter luciferase screen, hPPARg1 promoter; assay type: cell-based, human; details: for Luc. act., normalized to lacZ / Normalized Luc. act., normalized to control: PPARG1 promoter, hormone receptor with or without its ligand; for Normalized Luc. act., normalized to control: relative to control; for Results of assays of transcription factor (+/- ligand) with hPPARg1: Table 6d, luciferase activity relative to control (control = 1.00)
# Procedure, shortened: as §1
# mPer1 promoter = experiment: NHR-promoter luciferase screen, mPer1 promoter; assay type: cell-based, mouse; details: for Luc. act., normalized to lacZ / Normalized Luc. act., normalized to control: Per1 promoter reporter, co-transfected HR, with or without its ligand; for Normalized Luc. act., normalized to control: relative to control; for luciferase activity normalized to lacZ activity and to a control, mPer1: mPer1 promoter-luciferase, CV-1 cells, NHR +/- ligand, control = 1.00
# Procedure, shortened: as §1
Molecule,"Luc. act., normalized to lacZ (RevErba promoter; RVRa promoter)","Normalized Luc. act., normalized to control (RevErba promoter; RVRa promoter)","normalized Luc. act. on a logarithmic scale (column without head, Table 33) (RevErba promoter; RVRa promoter)",mRevErba promoter reporter activity (RevErba promoter),"Luc. act., normalized to lacZ (mAdiponectin promoter)","Normalized Luc. act., normalized to control (mAdiponectin promoter)",mAdiponectin promoter reporter activity (mAdiponectin promoter),"Luc. act., normalized to lacZ (mPgc1b promoter)","Normalized Luc. act., normalized to control (mPgc1b promoter)","luciferase activity normalized to lacZ activity and to a control, mPgc1b (mPgc1b promoter)","Luc. act., normalized to lacZ (hPPARg1 promoter)","Normalized Luc. act., normalized to control (hPPARg1 promoter)",Results of assays of transcription factor (+/- ligand) with hPPARg1 (hPPARg1 promoter),"Luc. act., normalized to lacZ (mPer1 promoter)","Normalized Luc. act., normalized to control (mPer1 promoter)","luciferase activity normalized to lacZ activity and to a control, mPer1 (mPer1 promoter)","negative reciprocal of normalized Luc. act. (fold repression; Table 33) (RevErba promoter; RVRa promoter, given only where activity is below control)"
B1,39.6,1.4,0.15,1.42,62.6,1.0,1.00,12.70,1.1,1.07,80.1,1.2,1.16,120.3,0.8,0.84,–
B2,25.3,0.9,−0.04,0.90,89.4,1.4,1.42,7.88,0.7,0.67,46.0,0.7,0.67,187.6,1.3,1.30,−1.106
B3,45.6,1.6,0.21,1.63,81.2,1.3,1.29,14.32,1.2,1.21,100.6,1.5,1.46,89.3,0.6,0.62,–
B4,34.6,1.2,0.09,1.24,78.6,1.3,1.25,12.69,1.1,1.07,86.6,1.3,1.26,85.4,0.6,0.59,–
B5,31.7,1.1,0.05,1.13,62.6,1.0,1.00,7.82,0.7,0.66,54.8,0.8,0.80,98.0,0.7,0.68,–

# Source: patent US20110263454A1, “Methods of Identifying Functional Characteristics of Promoters, Transcription Modifying Proteins and Transcription Modulating Agents” (Salk Institute for Biological Studies, priority 2008, published 2011)
